Laboratory results: article PMC7753147 (2020)

Biological target: T1, Gephyrin E domain (gephE) (Rattus norvegicus, UniProt Q03555)
T1 chain: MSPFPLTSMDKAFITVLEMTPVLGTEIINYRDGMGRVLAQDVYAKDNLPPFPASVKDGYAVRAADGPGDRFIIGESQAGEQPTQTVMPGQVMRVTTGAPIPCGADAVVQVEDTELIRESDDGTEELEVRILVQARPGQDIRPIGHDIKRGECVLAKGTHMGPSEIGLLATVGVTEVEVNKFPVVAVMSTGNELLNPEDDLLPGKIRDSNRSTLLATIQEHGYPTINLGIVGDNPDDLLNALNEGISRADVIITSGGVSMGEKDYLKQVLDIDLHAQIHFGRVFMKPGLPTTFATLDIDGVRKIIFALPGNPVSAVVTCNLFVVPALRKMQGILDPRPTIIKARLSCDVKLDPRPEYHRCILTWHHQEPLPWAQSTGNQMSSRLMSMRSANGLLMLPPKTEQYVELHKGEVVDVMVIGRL

Question: With DLRSNDFSVVGSLPR [GlyRβ_Full_Positional_Scan_166] as the binder, how does the EC50 read?
Answer: Its EC50 is 255 µM.

Question: DLRSNDFSIIGSLPR [GlyRβ_Full_Positional_Scan_183] was tested. Which EC50 did it give?
Answer: Its EC50 is 107 µM.

Question: DLRSNDFTIVGSLPR [GlyRβ_Full_Positional_Scan_156] was tested. Which EC50 did it give?
Answer: Its EC50 is 198 µM.

Question: How did the EC50 turn out when DLRSNDFSLVGSLPR [GlyRβ_Full_Positional_Scan_164] was run?
Answer: The EC50 was 268 µM.

Question: DLRSNDFGIVGSLPR [GlyRβ_Full_Positional_Scan_142] was tested. Which EC50 did it give?
Answer: Its EC50 is 505 µM.

Question: For DLRSNDYSIVGSLPR [GlyRβ_Full_Positional_Scan_129], which EC50 is on record?
Answer: Its EC50 is 2200 µM.

Question: With DLRSNDFSCVGSLPR [GlyRβ_Full_Positional_Scan_177] as the binder, how does the EC50 read?
Answer: Its EC50 is 118 µM.

Question: How did the EC50 turn out when DLRSNDWSIVGSLPR [GlyRβ_Full_Positional_Scan_128] was run?
Answer: Its EC50 is 380 µM.

Question: How did the EC50 turn out when DLRSNDFSMVGSLPR [GlyRβ_Full_Positional_Scan_178] was run?
Answer: The EC50 was 228 µM.

Biological target: T2, gephyrin E domain (gephE), recombinant
T2 chain: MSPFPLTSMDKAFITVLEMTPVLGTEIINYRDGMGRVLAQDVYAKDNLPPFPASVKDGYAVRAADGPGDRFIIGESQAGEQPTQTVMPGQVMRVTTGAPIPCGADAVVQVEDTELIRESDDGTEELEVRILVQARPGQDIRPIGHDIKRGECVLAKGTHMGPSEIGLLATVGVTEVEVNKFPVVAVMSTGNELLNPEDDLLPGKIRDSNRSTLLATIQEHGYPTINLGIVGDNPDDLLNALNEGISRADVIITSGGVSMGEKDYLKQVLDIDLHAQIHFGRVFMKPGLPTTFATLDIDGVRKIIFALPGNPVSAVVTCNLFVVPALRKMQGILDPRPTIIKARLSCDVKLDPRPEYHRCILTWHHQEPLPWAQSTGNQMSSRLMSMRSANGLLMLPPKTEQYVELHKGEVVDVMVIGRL

Question: Which Ki does the source give for DLRSNDFSIVGSLPR (C-terminal amide) [GlyR β-derived peptide 414DLRSNDFSIVGSLPR428, unmodified, in solution] here?
Answer: Its Ki is 10 µM.
